Reference: patent US12168677B2, “Proteins for the treatment of epithelial barrier function disorders” (Genevive, Inc., priority 2017, dated 2024)

B1: SG-18: 267 amino acid protein (SEQ ID NO:19) encoded by the genome of Clostridium bartlettii sp. nov. (protein, listed as Clostridium bartlettii)
chain: EVDSSKEQATSKDEKQVVVATSVAITEILDRLGVEVSGVPQTSYELPESAKGATEIGSPMNPDMEIIKSLNPTDVICVDTLGSDFEKQFEENNINADFYNLSNVDGLKETIAALGEKFNKQDKANEILDEIKEVENKVNSNKKSDDKILVLFGAPGSVMVATDKSYIGNLVELAGGNNIFSNATSSFTQINLEEIIKLNPDKILVMTHAVPEAAKKSVEEELSKDLWKNVNAVKNNDITYLENGYFGMSANLQIVEAVEKLGDILYE
B2: SG-16: 119 amino acid protein (SEQ ID NO:9) encoded by the genome of Eubacterium eligens (protein, listed as Eubacterium eligens)
chain: MTGCSGSKEPDNKTSVDYTVVENADLPEELKKLIESKKDKVMRLTYTTKDYTYVVAGYGTRETSGYSIKVNDVYTGDNALYIDLNLIGPAAGEAVNEVETYPVIVLKMERREESVVFKM
B3: SG-15: 400 amino acid protein (SEQ ID NO:1) encoded by the genome of Eubacterium eligens (protein, listed as Eubacterium eligens)
chain: EYTEIRTASELVEAAKSASGNYKLMTDIDMTGVEWTPWDFSGTFDGNGHSILNLSVKTVSKKTMKTYDGNRKEYKTYGAGFFGVLTGAKVTGLDIYGARIEITTTEPCFAAPIAGLADDSDISDCIIKDTYVSLTDSAKMWGTGGIAGFGSGNLDNITTDVTLVCVDTDAAVRDEQFMGGAYAAGFLNIRNCSITIDGYDSDHGYVHDGGLVGMYMVYPLELSKTYQGEVLNNKVKGMITFFEDNTDRRAYCQANMGEVMNWTYAYSGFTSDFKRNETYDYSVTLLPEMCSNPSYTDVVTEATASDFGYTTHTCSTCGYTYSDTYTIHEHKVDSYSVVKEAASTDKKDGIEAGTCSLCNQTVYREYAANVVTDDNTQATDNKASGTAVKKGMKESTAVFA
B4: SG-17: 327 amino acid protein (SEQ ID NO:13) encoded by the genome of Eubacterium eligens (protein, listed as Eubacterium eligens)
chain: CNSKIDVKYDYNVEDYVQLGQYENISVQVDKTSIENELIESKIKQDVEDNTTYTEVDRGAIASDQILVTYTATSSGASLSGLTNTDGKTMILGTDTLGLELDELDQALYGMTPGQTKILIVDIPEDYSSDLYKGTRVVFELTMQTVAQANVPMITNAYVKEAFGYDTVEEYRQSIKESLETDINSKVENKIQEDVLSSLQDTFKISSYPDSLMEETRSRLETSIGFYADFSNLSKDEYCQKQYGLSFDDFVKKSVVQQLIMEAIVKDRNMTMREYDYKGSLDDFAADNGYSNADTFVEKFGKDKIVKAMLVQKAQDYVIEHANISYK

What was measured:
[1] = system: HCT8 enterocytes and HT29-MTX goblet cells; assay: Epithelial cell wound healing (Oris Cell Migration assay); type: cell-based, human; settings: SG protein 1 μg/ml, EGF 30 ng/ml, staurosporine 100 nM; 48 hours
Excerpt: HCT8 enterocytes and HT29-MTX goblet cells were used in wound healing studies. The 96 well Oris Cell Migration assay containing plugs preventing cell attachment in the center of each well was used according to the manufacturer's instructions (Platypus Technologies, Madison, WI). The migration assay plates were warmed to room temperature prior to use and plugs were removed from 100% confluence wells prior to cell addition. The HCT8 enterocyte and HT29-MTX goblet cell lines were used at a 9:1 ratio with a total of 5×10^4 total cells added per well (4.5×10^4 HCT8 cells and 0.5×10^4 HT29-MTX cells). […] Plugs were then removed from all control and sample wells. Control wells included cells treated with the diluent vehicle as the blank, 30 ng/ml epidermal growth factor (EGF) as the positive control, and 100 nM staurosporine as the negative control, all diluted in cRPMI. Sample wells contained SG-15 protein at a concentration of 1 μg/ml diluted in cRPMI. 100% and 0% wells were cultured in cRPMI. […] Prior to staining for viable cells, plugs were removed from the 0% wells. Treatment media was removed and cells were washed in PBS containing 0.9 mM CaCl2) and 0.5 mM MgCl2. […] Relative fluorescent values from 100% wells where plugs were removed prior to cell plating were set as the max effect, and 0% wells where plugs remained in place until immediately before staining were used as the baseline. Samples were normalized between 100% and 0% samples and values expressed as a percent growth.

[2] = system: DSS treated mice; assay: DSS model: colon weight to length ratio; type: in vivo, C57BL/6 mice; settings: 2.5% DSS 6 days
Description: Eight-week old C57BL/6 mice were housed 5 animals were cage and given food and water ad libitum for 7 days. Following the 7-day acclimation period, treatments were initiated concurrently with addition of 2.5% DSS to the drinking water. […] The mice were treated with 2.5% dextran sodium sulfate (DSS) in their drinking water for 6 days. Treatments were continued with SG-15 or […]-GLP2 twice a day (b.i.d.) in the morning and evening (every 8 and 16 hr) with i.p. injections at 50 nmoles/kg. Fresh 2.5% DSS drinking water was prepared every 2 days. Colon length and weight were measured in mice included in the DSS model study described in Example 1E. […] Accordingly, the ratio of tissue weight to length can be used as a readout of DSS induced tissue damage. SG-15 administration to DSS treated mice (Example 1E) reduced the colon weight to length ratio elicited by DSS (DSS=3.9 mg/mm, DSS+SG-15=3.5 mg/mm; p=0.13). […] However, no difference was observed between treated with SG-15 as compared to treatment with […]GLP2. The graph in FIG. 9 represents data pooled from the 2 individual experiments (n=20).

[3] = system: HCT8 enterocytes and HT29-MTX goblet cells; assay: Co-culture trans-epithelial electrical resistance (TEER) assay with heat killed E. coli challenge; type: cell-based, human; settings: TEER after 24 hours
Description: Assays were performed as described below in trans-well plates where co-cultures of multiple cell types were performed utilizing a permeable membrane to separate cells. In the apical (top) chamber, human colonic epithelial cells, consisting of a mixture of enterocytes and goblet cells, were cultured until cells obtained tight junction formation and barrier function capacity as assessed by measurement of trans-epithelial electrical resistance (TEER). In the basolateral chamber, monocytes were cultured separately. Epithelial cells were primed with inflammatory cytokines. The assays measured the effect of a therapeutic protein, i.e., SG-15, on epithelial barrier function, wound healing, and production of cytokines. Cell culture. The HCT8 human enterocyte cell line (ATCC Cat. No. CCL-244) was maintained in RPMI-1640 medium supplemented with 10% fetal bovine serum, 100 IU/ml penicillin, 100 μg/ml streptomycin, 10 μg/ml gentamicin and 0.25 μg/ml amphotericin (cRPMI). HT29-MTX human goblet cells (Sigma-Aldrich (St. Louis, MO; Cat. No. 12040401) were maintained in DMEM medium with 10% fetal bovine serum, 100 IU/ml penicillin, 100 μg/ml streptomycin, 10 μg/ml gentamicin and 0.25 μg/ml amphotericin (cDMEM). Epithelial cells were passaged by trypsinization and were used between 5 and 15 passages following thawing from liquid nitrogen stocks. U937 monocytes (ATCC Cat. No. 700928) were maintained in cRPMI medium as a suspension culture, and split by dilution as needed to maintain cells between 5×10^5 and 2×10^6 cells/ml. U937 cells were used up to passage 18 following thawing from liquid nitrogen stocks. Epithelial cell culture. A mixture of HCT8 enterocytes and HT29-MTX goblet cells were plated at a 9:1 ratio, respectively, in the apical chamber of the transwell plate as described previously (Berget et al., 2017, Int J Mol Sci, 18:1573; Beduneau et al., 2014, Eur J Pharm Biopharm, 87:290-298). A total of 10^5 cells were plated in each well (9×10^4 HCT8 cells and 1×10^4 HT29-MTX cells per well). Epithelial cells were trypsinized from culture flasks and viable cells determined by trypan blue counting. The correct volumes of each cell type were combined in a single tube and centrifuged. The cell pellet was resuspended in cRPMI and added to the apical chamber of the transwell plate. […] Monocyte culture. On day 6 of epithelial cell culture 2×10^5 cells/well U937 monocytes were plated into a 96 well receiver plate. […] Co-culture assay. […] After 24 hours fresh cRPMI was added to the epithelial cell culture plate. Trans-epithelial electrical resistance (TEER) readings were measured after the IFN-γ treatment and were used as the pre-treatment TEER values. SG-15 was then added to the apical chamber of the transwell plate at a final concentration of 1 μg/ml (40 nM). The myosin light chain kinase (MLCK) inhibitor peptide 18 (BioTechne, Minneapolis, MN) was used at 50 nM as a positive control to prevent inflammation induced barrier disruption (Zolotarevskky et al., 202, Gastroenterology, 123:163-172). The bacterially derived molecule staurosporine was used at 100 nM as a negative control to induce apoptosis and exacerbate barrier disruption (Antonsson and Persson, 2009, Anticancer Res, 29:2893-2898). […] Following pre-incubation with test compounds the transwell insert containing the enterocytes was transferred on top of the receiver plate containing U937 monocytes. Heat killed E. coli (HK E. coli) (bacteria heated to 80° C. for 40 minutes) was then added to both the apical and basolateral chambers and a multiplicity of infection (MOI) of 10. […] The TEER assays were performed with recombinantly expressed mature (lacking a signal peptide) SG-15 protein such as that described in Example 1A above. Data analysis. Raw electrical resistance values in ohms (Ω) were converted to ohms per square centimeter (Ωcm^2) based on the surface area of the transwell insert (0.143 cm^2). […]

[4] = DSS+SG protein, 50 nmoles/kg i.p. b.i.d., unit not given
[5] = protein 1 μg/ml (40 nM) added 30 minutes before HK E. coli
[6] = protein 1 μg/ml (40 nM) pre-incubated 6 hours before HK E. coli

Row | Molecule | Wound healing, percent growth [1] | Colon weight to length ratio [2, 4] | TEER of epithelial cell barrier (percent of untreated samples) [3, 5] | TEER of epithelial cell barrier (percent of untreated samples) [3, 6] | Colon weight to length ratio, SG protein compared with Gly2-GLP2 ([2]; 50 nmoles/kg i.p. b.i.d.) | Colon weight to length ratio ([2]; DSS+SG-15, 50 nmoles/kg i.p. b.i.d.)
1 | B1 | slight increase in growth | 3.3 | 71.0% | about 85.0% |  | 
2 | B2 | significant increase in growth | 4.1 | 60.7% | about 60.0% |  | 
3 | B3 | significant increase in growth |  | 71.4% | 68.5% | no difference | 3.5 mg/mm
4 | B4 | significant increase in growth | 3.14 | 72.0% | about 74.2% |  | 
